One block for each binder: values may come before it.
What was measured:
Test in all cases: SPR
[1] = molecular target: IL-1 receptor accessory protein (IL-1RAcP) ectodomain (Homo sapiens (Human)., UniProt Q9NPH3, glycosylated (seven putative glycosylation sites))
IL-1RAcP domain 1/2 = IL-1RAcP domain 1/2 (Homo sapiens, UniProt Q9NPH3)
IL-1RAcP domain 3 = IL-1RAcP domain 3 (Homo sapiens, UniProt Q9NPH3)
Fc-fused IL-1RAcP V224A = Fc-fused IL-1RAcP V224A (Homo sapiens, UniProt Q9NPH3, V224A)
Fc-fused IL-1RAcP Y249A = Fc-fused IL-1RAcP Y249A (Homo sapiens, UniProt Q9NPH3, Y249A)
Fc-fused IL-1RAcP Y249A, sequence (Q9NPH3 21-367 Y269A): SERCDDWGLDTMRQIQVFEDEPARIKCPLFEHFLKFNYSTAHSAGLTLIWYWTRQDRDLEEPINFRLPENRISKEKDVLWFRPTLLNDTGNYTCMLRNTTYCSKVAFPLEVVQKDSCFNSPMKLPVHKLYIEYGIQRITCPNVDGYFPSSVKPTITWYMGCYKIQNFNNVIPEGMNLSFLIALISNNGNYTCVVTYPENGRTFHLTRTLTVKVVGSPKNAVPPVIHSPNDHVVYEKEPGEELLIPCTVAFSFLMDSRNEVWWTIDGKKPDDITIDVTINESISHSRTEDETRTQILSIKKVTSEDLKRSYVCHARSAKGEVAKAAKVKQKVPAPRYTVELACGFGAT

Fc-fused IL-1RAcP H226A = Fc-fused IL-1RAcP H226A (Homo sapiens, UniProt Q9NPH3, H226A)
Fc-fused IL-1RAcP H226A, sequence (Q9NPH3 21-367 H246A): as the sequence (Q9NPH3 21-367 Y269A) above, with H226A, A249Y counted along it

Fc-fused IL-1RAcP R286A = Fc-fused IL-1RAcP R286A (Homo sapiens, UniProt Q9NPH3, R286A)
Fc-fused IL-1RAcP R286A, sequence (Q9NPH3 21-367 R306A): as the sequence (Q9NPH3 21-367 Y269A) above, with A249Y, R286A counted along it

IL-1 receptor accessory protein (IL-1RAcP) ectodomain, sequence (Q9NPH3 21-367): as the sequence (Q9NPH3 21-367 Y269A) above, with A249Y counted along it
Fc-fused IL-1RAcP V224A, sequence (Q9NPH3 21-367 V244A): as the sequence (Q9NPH3 21-367 Y269A) above, with V224A, A249Y counted along it

Kd [1]: 0.141 nM
koff [1]: 0.000225 s⁻¹
binding result (IL-1RAcP domain 1/2): no binding (tested: 1.25nM to 20nM)
Kd (IL-1RAcP domain 3): 0.118 nM
B1: 3G5 monoclonal antibody (hIgG1 with Fc-silent LALA mutations) (antibody, V domains shown)
VH: EVQLVESGGVLVKPGGSLKLSCAASGFTFSDYAMSWVRQTPEKRLEWVATITDGGSYAYYTDDVKGRFTVSRDNARNNLFLQMSHLRSEDTGIYYCSRDRWPYYFDFWGRGTTLTVSS
VL: DIQMTQSPTSLSVSVGETVTITCRISENIYSNLAWYQQKEGKSPQLLVYAATKLADGVPSRFSGSGSGTQYSLKINSLQSEDFGNYYCQHFWTTPRTFGGGTKVEIK

ΔΔG (change in binding free energy against wild-type IL-1RacP-Fc) (Fc-fused IL-1RAcP V224A): 1.3 kcal/mol
ΔΔG (change in binding free energy against wild-type IL-1RacP-Fc) (Fc-fused IL-1RAcP Y249A): 1.85 kcal/mol
ΔΔG (change in binding free energy against wild-type IL-1RacP-Fc) (Fc-fused IL-1RAcP H226A): 2.4 kcal/mol
ΔΔG (change in binding free energy against wild-type IL-1RacP-Fc) (Fc-fused IL-1RAcP R286A): 0.3 kcal/mol
B2: 3G5 Fab (Fab, V domains shown)
VH: B1 VH
VL: B1 VL

Reference: paper PMC11587196 (Cell reports, 2024)
